According to patent US20100129315A1 (published 2010):

Molecular target: human MN protein, entire extra-cellular domain with a C-terminal histag, expressed in HKB-11 cells (human, UniProt Q16790 38-414)
Assay: BIAcore; crude Fab

B1: 5aa3 Crude Fab (antibody, V domains shown)
VH: ELVQSGAEVKKPGESLKISCKGSGYSFTGYISWVRQAPGKGLEWMGIIYPGDSYTNYSPSFQGQVTISADKSISTAYLQWSSLKASDTAMYYCARYSGPNWDVMDSWGQGTLVTVSS
VL: DIVLTQPPSVSGAPGQRVTISCSGSSSNIGSYYVNWYQQLPGTAPKLLIYADDKRPSGVPDRFSGSKSGTSASLAITGLQSEDEADYYCQSYDSTKDDSVFGGGTKL
  Kd: 25 nM
